Source: article doi:10.1101/580043

How the values were obtained:
[1] = target: MBP-tagged PRG-1 PIWI domain (C. elegans); experiment: MST
[2] = target: Recombinant full-length MBP-tagged DEPS-1 (C. elegans) (UniProt Q9N303); experiment: MST
Recombinant full-length MBP-tagged DEPS-1 (C. elegans), sequence (Q9N303 whole entry): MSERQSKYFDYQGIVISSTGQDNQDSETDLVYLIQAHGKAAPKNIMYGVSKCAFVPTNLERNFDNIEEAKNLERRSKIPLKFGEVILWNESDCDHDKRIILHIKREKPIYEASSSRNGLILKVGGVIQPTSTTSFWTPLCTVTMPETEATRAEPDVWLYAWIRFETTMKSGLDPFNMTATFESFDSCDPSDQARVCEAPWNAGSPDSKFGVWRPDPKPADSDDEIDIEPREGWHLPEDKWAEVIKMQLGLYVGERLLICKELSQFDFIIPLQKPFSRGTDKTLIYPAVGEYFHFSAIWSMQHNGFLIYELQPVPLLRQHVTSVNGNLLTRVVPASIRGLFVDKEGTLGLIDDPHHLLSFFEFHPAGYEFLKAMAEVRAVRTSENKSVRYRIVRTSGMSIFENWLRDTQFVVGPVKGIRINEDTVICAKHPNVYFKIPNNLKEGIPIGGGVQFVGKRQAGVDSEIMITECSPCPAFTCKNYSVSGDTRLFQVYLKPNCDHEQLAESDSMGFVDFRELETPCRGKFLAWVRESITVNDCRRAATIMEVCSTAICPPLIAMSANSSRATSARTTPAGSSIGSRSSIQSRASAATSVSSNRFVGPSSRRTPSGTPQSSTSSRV

MBP-tagged DEPS-1 N-terminal fragment (DEPS-1^frag1) (domain or fragment), sequence (Q9N303 whole entry, the tested form may be a part): as the sequence (Q9N303 whole entry) above

Row | Kd [1] [nM] | Kd [2] [nM] | Substance
1 | 151 |  | MBP-tagged DEPS-1 N-terminal fragment (DEPS-1^frag1) (domain or fragment)
2 |  | 349 | MBP-tagged PRG-1 PIWI domain (domain or fragment)
